Assay results taken from the supplement of paper PMC9170038.

System: MS2 coat protein
Assay: apparent KD of MS2 coat protein; designed switch direction (-1 OFF switch, 1 ON switch): 1; higher = weaker reporter binding
Procedure, shortened: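 On Illumina chips, designed RNA switches with common flanks were made by stalled E. coli RNA polymerase. Titrations with SNAP-549-labelled MS2 coat protein, doubling from 0.7 or 1.5 nM to 3 µM, were done with no input, with 200 uM small-molecule ligand, or with an oligonucleotide input. Apparent KD is the median per design over clusters, from curve fits of normalised cluster fluorescence.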

[1] = input ligand: microRNA oligo, concentration not stated
[2] = Eterna round: R95, input ligand: FMN 200 uM
[3] = Eterna round: R95, input ligand: microRNA oligo, concentration not stated
[4] = Eterna round: R95, input ligand: none

Row | Sequence | apparent KD of MS2 coat protein (input ligand: FMN 200 uM) [µM] | apparent KD of MS2 coat protein [1] [µM] | apparent KD of MS2 coat protein (input ligand: none) [µM] | apparent KD of MS2 coat protein [2] [µM] | apparent KD of MS2 coat protein [3] [µM] | apparent KD of MS2 coat protein [4] [µM]
1 | UGACACACGGCAGGAUAUCGAUUGCAAAGCAAUCGAGAAGGGCCUCAUGUCGUGGAAACGUGACAUGAGGAUCACCCAUGUUGC [Omei SS(NG)1 Cv14] (Eterna round: R96, puzzle: Same State NG 1) | 0.178 | 0.0196 | 0.0329 | – | – | –
2 | UGCCUGAGUCGAGGAUAUUAUGGAUCCUUUAAUACAUGAGGAUCACCCAUGUAAUUAAUUAUACAUGAGAAGGUGACUCAGGCA [SSNG2/11-B2] (Eterna round: R96, puzzle: Same State NG 2) | 0.039 | 0.126 | 0.289 | – | – | –
3 | UGCUUCGUGUGAGGAUAUGCUGCCGUUUCGGCUGCAGAAGGUACUAUAAUACAUGAGGAUCACCCAUGUCUGUCGGUUUGCGGG [salish99_SSng1_r04_305-lowA] (Eterna round: R96, puzzle: Same State NG 1) | 0.0464 | 0.0288 | 0.0493 | – | – | –
4 | UGGAUCUAGGCUUGCCUGGGUCCAUGCUGACAUGAGGAUCACCCAUGUGCAUCCUACAAGCUUUUUGCUUGUCGGCU (puzzle: Sensor for hsa-mir-208a) | – | – | – | 0.178 | 0.194 | 0.221
5 | UGGAUCUAGGCUUGCCUGGGUCCUUCAAGACAUGAGGAUCACCCAUGUGUUUUUUUUUUGCUUUUUGUUUGUCUUGA [JL A Humble Attempt mod 2] (puzzle: Sensor for hsa-mir-208a) | – | – | – | 0.0508 | 0.015 | 0.0231
6 | UGGCUCAGACGAGGAUAUACGUGGUCACAUGAGGAUCACCCAUGUCUCGAGCUUCGGCUCGAGGCGUAGAAGGUGUCUGAGCCU [SSNG2/6-C3] (Eterna round: R96, puzzle: Same State NG 2) | 0.237 | 0.363 | 0.662 | – | – | –
7 | UGGCUCAGACGAGGAUAUAUGUGAUCACAUGAGGAUCACCCAUGUCUCGAGCUUCGGCUCGAGACAUAGAAGGCGUCUGAGCCU [SSNG2/3-A3] (Eterna round: R96, puzzle: Same State NG 2) | 0.512 | 0.0123 | 0.0178 | – | – | –
8 | UGGUAACAUGAGGAUCACCCAUGUCAAAUGAAUCGAGGAUAUGGGAAAGGAGAAGAGAAACCAGAAGGCGAAGUUG [Altered State 1-13 - Jieux - Same State 1] (puzzle: Same State 1) | – | – | – | 0.0507 | 0.0541 | 0.0519
9 | UGGUAACAUGAGGAUCACCCAUGUCAAAUGAAUCUAGGAUAUGGGAAAGGAGAAGAGAAACCAGAAGGAGAGGUUG [Altered State 1-14 - Jieux - Same State 1] (puzzle: Same State 1) | – | – | – | 0.179 | 0.0631 | 0.107
10 | UGGUACAUGGGAGGAUAUCAUGCAAACAUGAGGAUCACCCAUGUAGCCAUGGAGACAUGGGUAUAUGAGAAGGCCCAUGUACCU [JL SSNG1 3.52] (Eterna round: R96, puzzle: Same State NG 2) | 0.317 | 0.0519 | 0.0883 | – | – | –
11 | UGGUACAUGGGAGGAUAUCAUGUAGACAUGAGGAUCACCCAUGUAGCCAUGGAGACAUGGGAGAAUGAGAAGGCCCAUGUACCU [JL SSNG1 3.54] (Eterna round: R96, puzzle: Same State NG 2) | 0.298 | 0.0141 | 0.104 | – | – | –
